Reference: publication PMC4228395, “Detrimental effect of the 6 His C-terminal tag on YedY enzymatic activity and influence of the TAT signal sequence on YedY synthesis” (BMC Biochemistry, 2013)

What was measured:
Assay in all cases: purified protein
Assay type in all cases: biochemical, Cereibacter sphaeroides
Conditions in all cases: 0.2 mM dithionite-reduced benzyl viologen as electron donor, 100 mM MES pH 6.0, anaerobic
C[S+](C)[O-] [1] = system: T1, C[S+](C)[O-]
T1 construct: mature periplasmic enzyme, TAT signal peptide cleaved; N-terminal 6His-TEV site (ENLYFQ) kept; plasmid pSM196 in R. sphaeroides dmsA- strain; monomer; molybdenum cofactor

C[S+](C)[O-] [2] = system: T2, C[S+](C)[O-]
T2 construct: mature enzyme, TAT signal peptide cleaved; N-terminal 6His tag cut off by TEV protease, GHM left at N-terminus; pSM196 in R. sphaeroides dmsA- strain; monomer

C[S+](C)[O-] [3] = system: T3, C[S+](C)[O-]
T3 construct: mature enzyme expressed without TAT signal peptide; N-terminal 6His-TEV site kept; plasmid pSM181 in R. sphaeroides dmsA- strain

Substance “YedY, N-ter tag (+SS) (Cereibacter sphaeroides f. sp. denitrificans)” has a Km (C[S+](C)[O-] [1]) of 71 mM.
Work on “YedY, No tag (+SS) (Cereibacter sphaeroides f. sp. denitrificans)” yielded a Km (C[S+](C)[O-] [2]) of 61 ± 7 mM.
With “YedY, N-ter tag (-SS) (Cereibacter sphaeroides f. sp. denitrificans)” the Km (C[S+](C)[O-] [3]) was 43 ± 6 mM.
